Assay results taken from doi:10.1101/388470 (bioRxiv, 2018).

T1: Cdc45-5FLAG (S. cerevisiae), Q08032
T1 chain: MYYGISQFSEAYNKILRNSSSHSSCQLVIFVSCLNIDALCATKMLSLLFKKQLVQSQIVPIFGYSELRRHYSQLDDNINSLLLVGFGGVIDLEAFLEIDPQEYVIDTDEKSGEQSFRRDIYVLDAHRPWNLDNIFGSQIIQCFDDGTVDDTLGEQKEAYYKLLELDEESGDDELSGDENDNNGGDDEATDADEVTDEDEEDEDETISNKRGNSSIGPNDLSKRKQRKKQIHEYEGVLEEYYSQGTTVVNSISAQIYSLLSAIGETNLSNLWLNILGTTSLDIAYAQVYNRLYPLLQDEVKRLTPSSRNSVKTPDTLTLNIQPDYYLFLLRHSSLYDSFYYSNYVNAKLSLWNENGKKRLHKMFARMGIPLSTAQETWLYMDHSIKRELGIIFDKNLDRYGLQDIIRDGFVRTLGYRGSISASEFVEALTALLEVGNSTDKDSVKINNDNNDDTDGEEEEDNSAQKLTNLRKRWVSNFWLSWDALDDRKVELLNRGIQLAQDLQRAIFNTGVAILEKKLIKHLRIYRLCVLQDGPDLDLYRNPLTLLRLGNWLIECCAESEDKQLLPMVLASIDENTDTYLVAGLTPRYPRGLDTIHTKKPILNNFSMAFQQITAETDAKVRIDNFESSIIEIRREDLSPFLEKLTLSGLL


What was measured:
[1] = biological target: the molecule itself; assay: co-sedimentation
[2] = biological target: T1, Cdc45-5FLAG (S. cerevisiae), Q08032; assay: co-sedimentation; conditions: remark: other sources report otherwise

Row | stoichiometry N [2] | Binder | stoichiometry N [1]
1 | – | Psf2-5FLAG (natural protein) MSLPAHLQQTFSPEEIQFIVENEPIKIFPRITTRQKIRGDDRGTGNHTRWQLITTDDKALNNMVAMRSTEVVLWIALLLKQQSKCSIVAPQWLTTKELDRKIQYEKTHPDRFSELPWNWLVLARILFNKAKDDFHDPIHELRGKIQDLREIRQIKVLKGLKYLNESHLQLDNLSLLEINELRPFITEIMDKLREIHTASLTAGTENDEEEFNI | 2
2 | 2 | Cdc45-5FLAG, Q08032 1-650 (natural protein) MYYGISQFSEAYNKILRNSSSHSSCQLVIFVSCLNIDALCATKMLSLLFKKQLVQSQIVPIFGYSELRRHYSQLDDNINSLLLVGFGGVIDLEAFLEIDPQEYVIDTDEKSGEQSFRRDIYVLDAHRPWNLDNIFGSQIIQCFDDGTVDDTLGEQKEAYYKLLELDEESGDDELSGDENDNNGGDDEATDADEVTDEDEEDEDETISNKRGNSSIGPNDLSKRKQRKKQIHEYEGVLEEYYSQGTTVVNSISAQIYSLLSAIGETNLSNLWLNILGTTSLDIAYAQVYNRLYPLLQDEVKRLTPSSRNSVKTPDTLTLNIQPDYYLFLLRHSSLYDSFYYSNYVNAKLSLWNENGKKRLHKMFARMGIPLSTAQETWLYMDHSIKRELGIIFDKNLDRYGLQDIIRDGFVRTLGYRGSISASEFVEALTALLEVGNSTDKDSVKINNDNNDDTDGEEEEDNSAQKLTNLRKRWVSNFWLSWDALDDRKVELLNRGIQLAQDLQRAIFNTGVAILEKKLIKHLRIYRLCVLQDGPDLDLYRNPLTLLRLGNWLIECCAESEDKQLLPMVLASIDENTDTYLVAGLTPRYPRGLDTIHTKKPILNNFSMAFQQITAETDAKVRIDNFESSIIEIRREDLSPFLEKLTLSGLL | –
